Reference: doi:10.1101/2024.03.27.587050

Experiments:
[1] = target: Chaetomium thermophilum NAT10 (CtNAT10), E.coli produced recombinant (Chaetomium thermophilum); assay: mass photometry
[2] = target: Chaetomium thermophilum NAT10 (CtNAT10), Sf9 produced recombinant (Chaetomium thermophilum); assay: mass photometry

| Substance | stoichiometry N [1] | stoichiometry N [2] |
| --- | --- | --- |
| Chaetomium thermophilum NAT10 (CtNAT10), E.coli produced recombinant (enzyme) | 2 | – |
| Chaetomium thermophilum NAT10 (CtNAT10), Sf9 produced recombinant (enzyme) | – | 2 |
